Reference: the supplement of paper PMC10567573
± gives the standard deviation.

Test: protein stability index of a GFP-peptide fusion (GPS, HEK-293T) (PSI 1-6); higher = more stable
[1] = treatment: DMSO, c terminus: a fixed tail appended
[2] = treatment: MLN4924 1 uM, 8 h, c terminus: a fixed tail appended
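Also: 24-mer peptide tiles fused after GFP, lentivirally expressed, FACS-sorted into six equal bins by GFP/DsRed ratio, decoded by Illumina sequencing, PSI is the read-weighted mean bin number.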

Sequence | protein stability index [1] | protein stability index [2] | protein stability index (treatment: DMSO, c terminus: native) | protein stability index (treatment: MLN4924 1 uM, 8 h, c terminus: native)
WETIRSFKDEWTQLDMFYRNWALK [AASDHPPT] | 2.14 ± 0.13 | 2.08 ± 0.32 | – | –
KDPRDPEESKEPKEEKQRRRCKPK [GNAS] | 5.37 ± 0.26 | 5.26 ± 0.3 | – | –
IEQQQIRNALENIRKEMKLLEQAG [CRYL1] | 3.84 ± 0.17 | 4.27 ± 0.62 | – | –
TQATETTTTRHKRTANPSKTIDLG [CLINT1] | 4.88 ± 0.09 | 5.05 ± 0.13 | – | –
FTFLQPLPLSPGVLSSTPDHSFSL [ATF4] | 2.2 ± 0.33 | 2.19 ± 0.33 | – | –
LSCLHSVCEQCLQILYESCPKYKF [RNF208] | 2.2 ± 0.25 | 2.35 ± 0.51 | – | –
AEAAPELDLFAMKPPETSVPVVTP [SNAP91] | 4.89 ± 0.15 | 4.98 ± 0.1 | – | –
KEPATMSWLEENVHEVLQAVDAGD [TCF25] | 5.05 ± 0.25 | 5.13 ± 0.17 | – | –
LPPIPHVFSAGTGSAILPHFHHAF [PLAGL1] | 2.15 ± 0.28 | 2.11 ± 0.1 | – | –
LRTLDKKTFYKTADISQMLVCTAD [TAF7L] | 2.61 ± 0.32 | 2.65 ± 0.41 | – | –
RRLLSYCKGRDHGVLDALHVLEGL [ZSWIM9] | 2.03 ± 0.21 | 2.16 ± 0.3 | – | –
DEIEFLKKLHEEELRDLQVSVESQ [PRPH] | 3.58 ± 0.7 | 4.07 ± 0.36 | – | –
PRGRRISVICRSLPEGMGPGESGQ [ALKBH7] | 3.69 ± 0.11 | 3.95 ± 0.37 | – | –
ENFDHNTLALILQIPTQNTQARQV [PPFIA4] | 2.58 ± 0.21 | 2.81 ± 0.45 | – | –
FAAEARYPIYVIPEPPPVSFQPYH [TENT5D] | 2.24 ± 0.22 | 2.26 ± 0.34 | – | –
NCKPLKSYMLQDSLEHVQLFDLMR [CLK3] | 2.11 ± 0.31 | 2.25 ± 0.35 | – | –
QDKSESLSDNATAFSNRSKQLRRQ [VAMP4] | 5.36 ± 0.4 | 5.17 ± 0.21 | – | –
APCRSAQASVSCALEALEPFWEVL [HDAC6] | 3.32 ± 0.59 | 2.69 ± 0.82 | – | –
IHGGVVNIHENKRTGSLFKIWLVV [KLHDC10] | 2.85 ± 0.47 | 2.45 ± 0.62 | – | –
ARLASPLPREEEIVFPEKLNGSVL [ADAMTS4] | 4.01 ± 0.42 | 4.16 ± 0.15 | – | –
STNRRRLSELLRYHTSQSGDEMTS [HSP90AB1] | 3.85 ± 0.15 | 4.11 ± 0.12 | – | –
IFSFGQLPLALVTWVPMFLSTLLA [SOAT2] | 2.9 ± 0.43 | 2.72 ± 0.56 | – | –

Sequence | protein stability index [1] | protein stability index [2] | protein stability index (treatment: DMSO, c terminus: native) | protein stability index (treatment: MLN4924 1 uM, 8 h, c terminus: native)
QSLAQPLPGNTTEATPRSLRASGS | 4.93 ± 0.33 | 5.13 ± 0.18 | – | –
CDLFDREIVVTISWAKSIPGFSSL [ESRRA] | 3.28 ± 0.16 | 2.97 ± 0.4 | – | –
VYTNLSSYSPASASSGGAGAAVGT [JUNB] | 3.26 ± 0.29 | 3.49 ± 0.27 | – | –
KCILKTPGKINCLRNCKTYQARKP [RHOBTB3] | 2.98 ± 0.17 | 3.03 ± 0.26 | – | –
IKKLIYVHLVIWLLLVAKMSVGHL [JAGN1] | 3.31 ± 0.35 | 3.13 ± 0.24 | – | –
LELVKYLLAAGANVHATTATGDTA [ANKRD17] | 2.16 ± 0.25 | 2.08 ± 0.4 | – | –
SLNKQIAQLQDFVRAKGSQSGRHL [STX5] | 3.08 ± 0.23 | 3.14 ± 0.55 | – | –
AGYYELAQVLLAMHANVEDRGIKG [ANKRD17] | 2.02 ± 0.21 | 1.96 ± 0.34 | – | –
SNLHRHQRTHTGEKPYKCPECGEI [ZNF263] | 4.22 ± 0.41 | 4.53 ± 0.22 | – | –
FTGKAEMGGPFSYVYFFCTVPEIL [TMEM106C] | 2.72 ± 0.59 | 2.16 ± 0.87 | – | –
DFANTIPGHGGIMDRFDCQYLMAT [CDS1] | 2.42 ± 0.21 | 2.63 ± 0.42 | – | –
KIDYCASSNHGCQHECVNTDDSYS [MATN2] | 4.37 ± 0.18 | 4.5 ± 0.18 | – | –
GTEFMQDPDEEHLKKSSQVPRTEA [PDLIM7] | 5.47 ± 0.12 | 5.23 ± 0.26 | – | –
IVTTVTTVQSRPRIDGKLDSPSRS [C2CD2L] | 3.4 ± 0.19 | 3.49 ± 0.27 | – | –
TIQGVPLSSYISINSDTGVLYALR [PCDHGA10] | 2.19 ± 0.096 | 2.14 ± 0.17 | – | –
KKLRFHPKQLYFSARQGELQKVLL [EHMT1] | 3.28 ± 0.71 | 2.63 ± 0.45 | – | –
AAAYGHALEQYEGESWRESARYLE [P3H4] | 4.19 ± 0.23 | 4.21 ± 0.21 | – | –
RRLGNGVSDDLSSEEDGEARTQMI [PHTF1] | 5.38 ± 0.2 | 5.21 ± 0.23 | – | –
KVLRKAGLSAGYVDAGAEPGRSRM [LPCAT4] | 3.6 ± 0.31 | 3.73 ± 0.25 | – | –
RQTVPPLTVRLHTQSVSECITEDG [PWWP2B] | 4.94 ± 0.11 | 4.7 ± 0.22 | – | –
NLKNDGRQVEKRRNSGPVVEKLKQ [MMP1] | 4.58 ± 0.24 | 4.41 ± 0.49 | – | –
DKYVGVSSDSVGGFRYSERYDPEP [CLINT1] | 4.22 ± 0.23 | 4.27 ± 0.35 | – | –

Sequence | protein stability index [1] | protein stability index [2] | protein stability index (treatment: DMSO, c terminus: native) | protein stability index (treatment: MLN4924 1 uM, 8 h, c terminus: native)
LCKIGSERSLVLDRLASNVAKRKS [IKZF1] | 3.83 ± 0.24 | 3.93 ± 0.28 | – | –
QLFSQIGPCKNCKMIMDTAGNDPY [TIA1] | 2.32 ± 0.1 | 2.45 ± 0.28 | – | –
GELPNHPKPAGGAIPTKKSLPSPS [FBF1] | 5.2 ± 0.25 | 5.25 ± 0.16 | – | –
PSHGSLSHSKAPSGSQMSHNAVTS [NCF4] | 4.55 ± 0.1 | 4.83 ± 0.37 | – | –
GLSAPARCLVRCLLRREPAERLTA [TRIB3] | 2.33 ± 0.12 | 2.16 ± 0.32 | – | –
GQRGNTESKTDGDDTETVPSEQSH [TCF25] | 5.58 ± 0.21 | 5.54 ± 0.23 | – | –
LHARLRELLCELGRPSMVWLSANP [PRAME] | 2.65 ± 0.57 | 2.39 ± 0.42 | – | –
FGGAAAVAILAVAIGVALALRKK [BCL2L13] | – | – | 2.99 ± 0.2 | 2.81 ± 0.21
LFAFMLVYPKEFHLNRGNHEDHMV [PPEF2] | 3.03 ± 1 | 2.32 ± 0.35 | – | –
THICRSHNSINQSLDESVIYGPGN [SLC2A12] | 3.62 ± 0.18 | 3.74 ± 0.2 | – | –
QVQSMVVGEVLKDIETACKLLNIT [SPDEF] | 2.42 ± 0.36 | 2.39 ± 0.35 | – | –
ILPKQSRKSMLDAGPDSWGSDAEQ [LCOR] | 4.51 ± 0.15 | 4.55 ± 0.21 | – | –
GLEAASVYSDHTNTNNLTFLMDLP [RNF180] | 3.13 ± 0.26 | 3.22 ± 0.3 | – | –
GVLILFLTFFAFLHCWLNAFAEML [SOAT1] | 2.88 ± 0.4 | 2.85 ± 0.36 | – | –
LYLLSGSIIAVAMQRGARLPAEVA [POMT2] | 2.81 ± 0.38 | 3.21 ± 0.77 | – | –
HGDSQQTHLLKQGRSSMGTGLSGG [CRY1] | 4.36 ± 0.16 | 4.43 ± 0.14 | – | –
LSTNNNTLRDHFKGISSHSRSSLM [SLC2A12] | 2.93 ± 0.3 | 3.3 ± 0.16 | – | –
FRNPMMSKLRNYRKDLAKLHREVR [VTI1B] | 2.37 ± 0.36 | 2.46 ± 0.24 | – | –
LPCARVQICRAQGLETLFSKAQEL [ZSWIM9] | 2.87 ± 0.51 | 2.33 ± 0.79 | – | –
GKSGLRVSCLGLGTWVTFGGQITD [KCNAB2] | 2.2 ± 0.61 | 2.04 ± 0.64 | – | –
DGLREQLQAPVPPDSVPSLQNMGL [PBXIP1] | 4.45 ± 0.1 | 4.4 ± 0.15 | – | –
